Source: IntAct's records for PubMed 16837009

B1: Serine/threonine-protein kinase PAK 2 (Homo sapiens), Q13177 (parent)
chain: MSDNGELEDKPPAPPVRMSSTIFSTGGKDPLSANHSLKPLPSVPEEKKPRHKIISIFSGTEKGSKKKEKERPEISPPSDFEHTIHVGFDAVTGEFTGMPEQWARLLQTSNITKLEQKKNPQAVLDVLKFYDSNTVKQKYLSFTPPEKDGFPSGTPALNAKGTEAPAVVTEEEDDDEETAPPVIAPRPDHTKSIYTRSVIDPVPAPVGDSHVDGAAKSLDKQKKKTKMTDEEIMEKLRTIVSIGDPKKKYTRYEKIGQGASGTVFTATDVALGQEVAIKQINLQKQPKKELIINEILVMKELKNPNIVNFLDSYLVGDELFVVMEYLAGGSLTDVVTETCMDEAQIAAVCRECLQALEFLHANQVIHRDIKSDNVLLGMEGSVKLTDFGFCAQITPEQSKRSTMVGTPYWMAPEVVTRKAYGPKVDIWSLGIMAIEMVEGEPPYLNENPLRALYLIATNGTPELQNPEKLSPIFRDFLNRCLEMDVEKRGSAKELLQHPFLKLAKPLSSLTPLIMAAKEAMKSNR

Variants of: B1
Settings: with limk1_human LIMK1, P53667
limk1_human LIMK1, P53667, sequence (P53667 whole entry, looked up): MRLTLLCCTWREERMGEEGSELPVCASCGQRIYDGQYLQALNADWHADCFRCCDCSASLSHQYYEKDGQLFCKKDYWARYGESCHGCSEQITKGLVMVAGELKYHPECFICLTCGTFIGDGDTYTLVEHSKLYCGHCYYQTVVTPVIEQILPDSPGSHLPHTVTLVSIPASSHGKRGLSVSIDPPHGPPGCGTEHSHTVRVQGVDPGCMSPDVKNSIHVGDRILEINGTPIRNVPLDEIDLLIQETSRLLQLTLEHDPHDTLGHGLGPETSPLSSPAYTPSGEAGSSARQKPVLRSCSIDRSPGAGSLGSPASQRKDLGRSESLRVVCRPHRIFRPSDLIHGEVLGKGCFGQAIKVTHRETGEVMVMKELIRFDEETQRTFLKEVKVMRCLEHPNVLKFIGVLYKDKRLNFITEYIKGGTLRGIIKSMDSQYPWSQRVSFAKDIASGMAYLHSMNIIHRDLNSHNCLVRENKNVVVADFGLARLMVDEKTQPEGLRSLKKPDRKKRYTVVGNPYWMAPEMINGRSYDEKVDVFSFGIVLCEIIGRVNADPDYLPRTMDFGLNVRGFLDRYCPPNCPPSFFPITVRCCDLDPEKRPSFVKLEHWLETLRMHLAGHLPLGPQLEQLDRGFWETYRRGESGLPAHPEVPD

| Variant | effect of a mutation on the interaction |
| --- | --- |
| L449Q | increasing interaction |
